Assay results reported in the RNAGym collection of RNA variant scans (doi:10.7554/elife.80360).

B1: Hairpin Ribozyme (parent)
chain: GUCCUCUUUCACGUGCGCGUGAAAGAGAGAAGUGAACCAGAGAAACACACGUUGUGGUAUAUUACCUGGUA

Variants of: B1
Assay: self-cleavage, relative activity (ratio to wild type); higher = more cleavage; co-transcriptional
For U5G G51U, the self-cleavage was 0.534.
For U7A U60A, the self-cleavage was 0.893.
C6A C12U showed a self-cleavage of 0.512.
In the case of C6A U33C, the self-cleavage is reported as 0.0869.
With C6U G25U the self-cleavage was 0.762.
In the case of C6U G25A, the self-cleavage is reported as 0.751.
U5G C65G showed a self-cleavage of 0.0535.
Work on C6U U70A yielded a self-cleavage of 0.699.
With U7A A26G the self-cleavage was 0.71.
In the case of U7A A36C, the self-cleavage is reported as 0.573.
In the case of C6G A41U, the self-cleavage is reported as 0.873.
U5G G25A gave a self-cleavage of 0.225.
C6A G42A gave a self-cleavage of 0.161.
C6A U8A gave a self-cleavage of 0.319.
Work on U7A A39G yielded a self-cleavage of 0.318.
Variant U5G A35G has a self-cleavage of 0.36.
Variant U5G A35C has a self-cleavage of 0.254.
Work on C6G A61U yielded a self-cleavage of 0.183.
For C6U A43U, the self-cleavage was 0.119.
Variant C6U C48G has a self-cleavage of 0.116.
Variant U7A A45G has a self-cleavage of 0.204.
U7A A45U gave a self-cleavage of 0.261.
Work on U5G G56U yielded a self-cleavage of 0.125.
C6G U52A showed a self-cleavage of 0.433.
Variant C6A G32U has a self-cleavage of 0.133.
C6A G32A gave a self-cleavage of 0.122.
For C6A G32C, the self-cleavage was 0.133.
In the case of U5C G69A, the self-cleavage is reported as 0.158.
In the case of U5G U52G, the self-cleavage is reported as 0.255.
In the case of U7A C16G, the self-cleavage is reported as 0.779.
Variant U7A C16U has a self-cleavage of 0.85.
Variant U5G C46A has a self-cleavage of 0.195.
For U5G G15A, the self-cleavage was 0.407.
Work on C6U G17U yielded a self-cleavage of 0.859.
In the case of U5G G42U, the self-cleavage is reported as 0.198.
U5G G42C gave a self-cleavage of 0.0932.
In the case of U5G G54A, the self-cleavage is reported as 0.204.
For U5G G54C, the self-cleavage was 0.212.
For C6U A31U, the self-cleavage was 0.101.
C6U G42C gave a self-cleavage of 0.342.
U7A C38U gave a self-cleavage of 0.329.
With U7A A61C the self-cleavage was 0.188.
In the case of U5G C48U, the self-cleavage is reported as 0.196.
Work on C6U A24U yielded a self-cleavage of 0.781.
For U5G A45G, the self-cleavage was 0.121.
For C6A A26C, the self-cleavage was 0.418.
In the case of U7A U52A, the self-cleavage is reported as 0.992.
U7A G40C showed a self-cleavage of 0.166.
Work on U7A G40U yielded a self-cleavage of 0.18.
With C6A A35C the self-cleavage was 0.695.
C6A A35U gave a self-cleavage of 0.428.
C6A A35G gave a self-cleavage of 0.619.
Variant C6G A47U has a self-cleavage of 0.13.
For C6G A47G, the self-cleavage was 0.0875.
Variant U7A C66G has a self-cleavage of 0.146.
With U5G A44U the self-cleavage was 0.093.
With U7A C46U the self-cleavage was 0.159.
U7A C46G showed a self-cleavage of 0.108.
In the case of U5G U70A, the self-cleavage is reported as 0.204.
For U5G U70C, the self-cleavage was 0.226.
In the case of C6G U55A, the self-cleavage is reported as 0.13.
Work on C6G U55C yielded a self-cleavage of 0.156.
C6G U55G gave a self-cleavage of 0.167.
With U7A U55C the self-cleavage was 0.175.
Variant U7A U55G has a self-cleavage of 0.205.
In the case of U7A U55A, the self-cleavage is reported as 0.152.
C6G A24U showed a self-cleavage of 0.331.
With U7A C12G the self-cleavage was 0.662.
Work on U5C U58C yielded a self-cleavage of 0.496.
With U5C U58A the self-cleavage was 0.21.
With C6U U63A the self-cleavage was 0.207.
Variant C6G C38A has a self-cleavage of 0.103.
C6A A59C showed a self-cleavage of 0.113.
C6A A59U showed a self-cleavage of 0.107.
Work on C6U U60G yielded a self-cleavage of 0.502.
In the case of C6U U60A, the self-cleavage is reported as 0.732.
U5G G21A showed a self-cleavage of 0.17.
In the case of U5G C66A, the self-cleavage is reported as 0.0473.
C6A A30C gave a self-cleavage of 0.221.
In the case of C6A U58C, the self-cleavage is reported as 0.697.
For C6U G40A, the self-cleavage was 0.344.
With C6U A30G the self-cleavage was 0.128.
For C6U A30C, the self-cleavage was 0.205.
U5G A36C gave a self-cleavage of 0.38.
Work on C6G G21U yielded a self-cleavage of 0.181.
For C6G G21C, the self-cleavage was 0.125.
U5G G29A gave a self-cleavage of 0.139.
Work on U5G A24G yielded a self-cleavage of 0.331.
C6U A64U gave a self-cleavage of 0.16.
Variant C6U A64G has a self-cleavage of 0.514.
C6U A64C showed a self-cleavage of 0.238.
In the case of C6G C12U, the self-cleavage is reported as 0.332.
For C6G C12A, the self-cleavage was 0.572.
Work on C6G C12G yielded a self-cleavage of 0.294.
With C6U G57U the self-cleavage was 0.324.
Variant C6U G57A has a self-cleavage of 0.117.
U5G A26U showed a self-cleavage of 0.51.
Work on U5G A26G yielded a self-cleavage of 0.286.
In the case of U7A C50U, the self-cleavage is reported as 0.364.
C6G G40U showed a self-cleavage of 0.103.
With C6G G27C the self-cleavage was 0.174.
C6G G27A showed a self-cleavage of 0.135.
For C6G G27U, the self-cleavage was 0.161.
U5G A31U gave a self-cleavage of 0.0772.
With C6G G54C the self-cleavage was 0.265.
C6G C16A showed a self-cleavage of 0.54.
U7A U58G showed a self-cleavage of 0.775.
U7A U58C showed a self-cleavage of 1.02.
Work on U7A G69C yielded a self-cleavage of 0.196.
Work on U7A G69A yielded a self-cleavage of 0.315.
U5C U67C gave a self-cleavage of 0.144.
With C6U A11G the self-cleavage was 0.816.
Work on C6U A11C yielded a self-cleavage of 0.411.
For C6U A11U, the self-cleavage was 0.578.
Work on U7A G32C yielded a self-cleavage of 0.143.
Variant C6G C48A has a self-cleavage of 0.171.
For U5G U55G, the self-cleavage was 0.2.
For C6G C46A, the self-cleavage was 0.153.
C6G C46U gave a self-cleavage of 0.143.
Variant U5G U8C has a self-cleavage of 0.099.
In the case of U5G U8G, the self-cleavage is reported as 0.262.
For C6A A45G, the self-cleavage was 0.0698.
U5G C50U showed a self-cleavage of 0.147.
Work on C6G U14C yielded a self-cleavage of 0.449.
C6U G29C gave a self-cleavage of 0.13.
U7A U9A gave a self-cleavage of 0.666.
Work on U7A U9C yielded a self-cleavage of 0.714.
U7A U9G showed a self-cleavage of 0.579.
In the case of C6G G69A, the self-cleavage is reported as 0.251.
For U5C U20A, the self-cleavage was 0.532.
With C6U C65A the self-cleavage was 0.776.
For C6G G25A, the self-cleavage was 0.523.
With U5G A47G the self-cleavage was 0.123.
In the case of U5G A49U, the self-cleavage is reported as 0.127.
C6A U70G gave a self-cleavage of 0.325.
For U7A G51A, the self-cleavage was 0.977.
For C6G G15C, the self-cleavage was 0.545.
Variant C6G C65A has a self-cleavage of 0.527.
With C6G A45U the self-cleavage was 0.101.
Work on C6G A45G yielded a self-cleavage of 0.0674.
With U5G C37G the self-cleavage was 0.125.
Work on C6G A39C yielded a self-cleavage of 0.299.
For C6G A39U, the self-cleavage was 0.164.
In the case of C6A G56A, the self-cleavage is reported as 0.117.
Work on C6A G56U yielded a self-cleavage of 0.218.
Variant U7A G17A has a self-cleavage of 0.865.
For C6U G13C, the self-cleavage was 0.65.
For C6U G13A, the self-cleavage was 0.712.
For C6G U53G, the self-cleavage was 0.454.
In the case of U5G C18G, the self-cleavage is reported as 0.577.
C6A A11C gave a self-cleavage of 0.415.
Work on C6A A11U yielded a self-cleavage of 0.399.
Work on U7C A22U yielded a self-cleavage of 0.642.
Variant C6A A47U has a self-cleavage of 0.182.
Variant C6A A47C has a self-cleavage of 0.221.
For C6U A36U, the self-cleavage was 0.54.
Variant C6U A36C has a self-cleavage of 0.705.
In the case of C6G U67A, the self-cleavage is reported as 0.15.
With C6A U62G the self-cleavage was 0.0891.
In the case of C6A U62A, the self-cleavage is reported as 0.127.
Work on C6U C46U yielded a self-cleavage of 0.176.
U7C A11C showed a self-cleavage of 0.525.
C6U G27C showed a self-cleavage of 0.106.
With C6U G27U the self-cleavage was 0.147.
Variant C6U G27A has a self-cleavage of 0.309.
U7A C18U showed a self-cleavage of 0.8.
Work on U7A G68U yielded a self-cleavage of 0.238.
